The subject of data set [1] is T1, pro-transglutaminase derived from S. mobaraense IFO13819 (transglutaminase having the pro-structure part).
T1 sequence: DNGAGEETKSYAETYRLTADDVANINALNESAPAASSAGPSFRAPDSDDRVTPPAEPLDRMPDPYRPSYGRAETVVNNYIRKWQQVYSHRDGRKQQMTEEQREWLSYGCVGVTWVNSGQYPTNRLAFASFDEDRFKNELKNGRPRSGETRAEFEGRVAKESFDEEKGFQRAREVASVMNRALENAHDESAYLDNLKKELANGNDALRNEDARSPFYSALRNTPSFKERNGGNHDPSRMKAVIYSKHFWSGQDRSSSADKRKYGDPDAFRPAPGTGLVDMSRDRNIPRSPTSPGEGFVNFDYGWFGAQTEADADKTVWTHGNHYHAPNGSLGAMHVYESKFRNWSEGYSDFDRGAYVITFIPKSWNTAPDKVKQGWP

The target in a further data set is T2, AFP-pNA.
T2 chain: AFP

A further data set has as its target T3, AAA-pNA.
T3 chain: AAA

Another data set addresses T4, RP-pNA.
T4 chain: RP

The target of another data set is T5, GP-βNA.
T5 chain: GP

Data set [2] deals with T6, pro-transglutaminase derived from S. mobaraense IFO13819 (transglutaminase having the pro-structure part).
T6 chain: T1 sequence

The next data set deals with T7, DP-pNA.
T7 chain: DP

For another data set, the target named is T8, AP-pNA.
T8 chain: AP

In another data set the target is T9, AAF-pNA.
T9 chain: AAF

The next data set concerns the target T10, PSFRAP-pNA.
T10 chain: PSFRAP

The next data set addresses T11, FRAP-pNA.
T11 chain: FRAX

In a further data set the target is T12, Z-AGP-βNA.
T12 chain: AGP

For another data set, the target named is T13, Bz-FVR-pNA.
T13 chain: FVR

A further data set concerns the target T14, AAP-pNA.
T14 chain: AAP

For the next data set, the target named is T15, Suc-AAPF-pNA.
T15 chain: AAPF

A further data set concerns the target T16, Z-GAP-βNA.
T16 chain: GAP

A further data set concerns the target T17, AAPL-pNA.
T17 chain: AAPL

The next data set has as its target T18, Z-GP-βNA.
T18 chain: GP

Another data set addresses T19, SFRAP-pNA.
T19 chain: SFRAP

Turning to Dispase (Boeringer Manheim Co. Ltd.), in [1], the “cleavage of the pro-transglutaminases by Dispase digestion (SDS-PAGE)” value is reported as “the cleavage of the pro-transglutaminases was confirmed by SDS-PAGE”.

B1: proline specific peptidase (svPEP) produced by S. mobaraense IFO13819 (protein)
chain: QADIKDRILKIPGMKFVEEKPYQGYRYLVMTYRQPVDHRNPGKGTFEQRFTLLHKDTDRPTVFFTSGYNVSTNPSRSEPTRIVDGNQVSMEYRFFTPSRPQPADWSKLDIWQAASDQHRLYQALKPVYGKNWLATGGSKGGMTATYFRRFYPNDMNGTVAYVAPNDVNDKEDSAYDKFFQNVGDKACRTQLNSVQREALVRRDEIVARYEKWAKENGKTFKVVGSADKAYENVVLDLVWSFWQYHLQSDCASVPATKASTDELYKFIDDISGFDGYTDQGLERFTPYYYQAGTQLGAPTVKNPHLKGVLRYPGINQPRSYVPRDIPMTFRPGAMADVDRWVREDSRNMLFVYGQNDPWSGEPFRLGKGAAARHDYRFYAPGGNHGSNIAQLVADERAKATAEVLKWAGVAPQAVQKDEKAAKPLAPFDAKLDRVKNDKQSALRP
For the molecule B1, the relative activity (%) in the data set with AFP-pNA stood at 26.3%; with AAA-pNA, 8.5%; with RP-pNA, 0.94%; in the data set with GP-βNA it was 0.4%; in the data set with DP-pNA, 0%; with AP-pNA it was 0.53%. The relative activity (%) with AAF-pNA is 4.1%; with PSFRAP-pNA, 0.2%; with FRAP-pNA, 49%; in the data set with Z-AGP-βNA it was 0.78%; in the data set with Bz-FVR-pNA, 0.002%; with AAP-pNA, 100%. Also, the relative activity (%) was found to be 0.01% with Suc-AAPF-pNA; 1.2% in the data set with Z-GAP-βNA; 0.3% in the data set with AAPL-pNA; 0.04% with Z-GP-βNA; 1.23% with SFRAP-pNA. Moreover, the “N-terminal amino acid sequence of the cleaved transglutaminase (SAMP45 and svPEP co-secreted)” value in data set [2] was “it had the same sequence as the naturally occurring transglutaminase derived from S. mobaraense having Asp as the N-terminal amino acid”.

The record behind these values is patent publication US20030082746.
